In publication PMC6389858 one finds binding data, which are given here for one sequence.

Data set [1] has as its target T1, OxyR (Escherichia coli K12 BW25113?) (UniProt P0ACQ4).
T1 sequence: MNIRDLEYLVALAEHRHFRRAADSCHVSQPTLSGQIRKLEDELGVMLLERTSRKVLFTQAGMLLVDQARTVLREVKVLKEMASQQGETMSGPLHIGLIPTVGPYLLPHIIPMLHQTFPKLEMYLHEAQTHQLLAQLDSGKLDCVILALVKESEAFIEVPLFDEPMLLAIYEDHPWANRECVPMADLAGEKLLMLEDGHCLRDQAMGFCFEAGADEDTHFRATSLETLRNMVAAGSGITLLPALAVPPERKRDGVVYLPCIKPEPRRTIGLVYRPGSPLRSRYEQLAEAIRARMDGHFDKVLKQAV
Kind of data set: EMSA. Conditions: EMSA: 10 mM HEPES pH 7.3, 20 mM KCl, 1 mM MgCl2, 5% glycerol, poly dI-dC, NP-40, 25 C, 2 h; 6% DNA retardation gel.

For data set [2], the target named is T1, OxyR (Escherichia coli K12 BW25113?). Kind of data set: competition. Conditions: EMSA: 10 mM HEPES pH 7.3, 20 mM KCl, 1 mM MgCl2, 5% glycerol, poly dI-dC, NP-40, 25 C, 2 h; 6% DNA retardation gel. Background: A gel shift assay detects complexes by their altered migration in electrophoresis.

Regarding “ACTGGCCTGATAAGCCTGTTTACCTCGGGGCGCAGGCGCATCTGCAAAACTTCTACCAGAGTTTCGGTTTTATCCCTGTGACGGAGGTCTATGAAGAAGATGGTATCCCACACATTGGGATGGCACGCGAGGTAATTCAGGCGTAATCAACAACCCTTGTCTATAGTTAGTGACAGGTTTTACGCAAATGGAGAACGAGA (double strand) [PelaB-S (elaB promoter probe with OxyR binding site 2)]”, the binding result in data set [1] and in data set [2] was “binds” in each case.
